Laboratory results taken from patent EP4480964A1, “TRANSFERRIN RECEPTOR-BINDING MOLECULES, CONJUGATES THEREOF AND THEIR USES TO PREVENT OR TREAT MUSCULAR DISEASES” (Vect-Horus, priority 2023, dated 2024).

B1: B8-siSOD1m: VHH-Oligo conjugate of VHH B8 and siSOD1m (conjugate)
VHH: EVQLVESGGGVVQPGGSLRLSCAASGEIFSINFMRWYRQAPGKQREWVAGFTRDGSTNYPDSAKGRFTISRDNAKNTVYLQIDSLKPEDTAVYYCYMLDTWGQGTQVTVSS
modifications: left off: things letters cannot carry; small tags and cut ends
B2: B8-siSOD1h: VHH-Oligo conjugate of VHH B8 and siSOD1h (conjugate)
VHH: B1 VHH
modifications: left off: things letters cannot carry; small tags and cut ends
B3: C5-siSOD1m: VHH-Oligo conjugate of VHH C5 and siSOD1m (conjugate)
VHH: EVQLVESGGGVVQPGGSLKLSCVASGTDFSINFIRWYRQAPGKQREFVAGFTATGNTNYADSMKGRFTISRDNTKNAVYLQIDSLKPEDTAVYYCYMLDKWGQGTQVTVSS
modifications: left off: things letters cannot carry; small tags and cut ends
B4: C5-siSOD1h: VHH-Oligo conjugate of VHH C5 and siSOD1h; Figure 12 legend: VHH is C5 (conjugate)
VHH: B3 VHH
modifications: left off: things letters cannot carry; small tags and cut ends

Key:
hTfR = target: T1, hTfR (Homo sapiens, UniProt P02786); assay: Competition assay with fluorescent reference C5-Alexa680 on living MCF-7 cells; format: binding; conditions: cells expressing human TfR (MCF-7), C5-Alexa680 10 nM, 3 hrs at 37°C; Ki similar or lower than free VHHs
T1 construct: or human breast ductal carcinoma MCF-7 cells, respectively; endogenous in cells; host or cells: MCF-7 human breast ductal carcinoma cells
Experimental: (§1) The binding of VHH-Oligo conjugates to mTfR, rhTfR and hTfR was evaluated using a competition assay on living cells expressing the receptor of interest, namely murine neuroblastoma Neuro-2a cells (N2a), CHO cells genetically engineered by the inventors to stably express the macaque rhesus TfR fused to the eGFP protein in C-terminal (CHO-rhTfR-GFP cells), or human breast ductal carcinoma MCF-7 cells, respectively. MCF-7 and N2a cells were grown in Dulbecco's Modified Eagle Medium (DMEM) GlutaMAX supplemented with 10% v/v FBS in 5% CO2 at 37°C. CHO-rhTfR-GFP cells were grown in Ham F12 GlutaMAX supplemented with 10% v/v FBS in 5% CO2 at 37°C. Cells were seeded two days before experiments in 96-well plates at a density of 50.000 cells/well. On the day of the experiment, free VHHs or VHH-Oligo conjugates diluted at various concentrations in DMEM supplemented with 1% bovine serum albumin (BSA) (MCF-7 and N2a cells) or in Ham F12 supplemented with 1% BSA (CHO-rhTfR-GFP cells) were co-incubated at various concentrations on each cell line during 3 hrs at 37°C with a subsaturating concentration of the fluorescent reference compound C5-Alexa680 (100 nM on N2a and CHO-rhTfR-GFP cell lines, 10 nM on MCF-7 cells). After treatment, cells were washed with D-PBS and dissociated by incubating with Trypsin/EDTA for 5 mins at 37°C, before the addition of cold culture media (4°C) to inhibit Trypsin activity. Resuspended cells were transferred in a 96-deepwell plate (V-bottom) containing 1% fetal bovine serum (FBS) / 0.02% sodium azide in phosphate-buffered saline (PBS) and then centrifuged for 5 min at 2000 rpm at 4°C. After removing the supernatant, 5 mM EDTA in D-PBS and 4% paraformaldehyde (PFA) (v/v 1:1) were added into wells to fix cells for 15 min at room temperature. PFA was removed by centrifugation (5 min, 3000 rpm, 4°C) and cells were resuspended with 5 mM EDTA in D-PBS. Then the cellular A680-associated fluorescence signal was quantified using an Attune™ NxT flow cytometer (Thermo Fisher Scientific) equipped with Attune™ NxT v3.1.2. Experimental data (experimental triplicates) were fitted with GraphPad Prism® software using a nonlinear fit to determine the apparent Ki inhibition constants. Graphs of Figure 1 show representative inhibition curves and tables show means ± SD of at least 2 independent experiments.

mTfR = target: T2, mTfR (Mus musculus, UniProt Q62351); assay: Competition assay with fluorescent reference C5-Alexa680 on living Neuro-2a cells; format: binding; conditions: cells expressing murine TfR (Neuro-2a), C5-Alexa680 100 nM, 3 hrs at 37°C; Ki similar or lower than free VHHs
T2 construct: living cells expressing the receptor of interest, namely murine neuroblastoma Neuro-2a cells (N2a); endogenous in cells; host or cells: Neuro-2a (N2a) murine neuroblastoma cells
Experimental: as §1

rhTfR = assay: Competition assay with fluorescent reference C5-Alexa680 on living CHO-rhTfR-GFP cells; format: binding; conditions: cells expressing macaque rhesus TfR (CHO-rhTfR-GFP), C5-Alexa680 100 nM, 3 hrs at 37°C; Ki similar or lower than free VHHs
Experimental: as §1

hSOD1 mRNA = assay: Free uptake gene silencing (RT-qPCR) in human cell lines; format: cell-based; conditions: 3 days, various human cell lines (Figure 2A)
Experimental: Human cell lines MCF-7 (breast ductal carcinoma cells), Igrov-1 (ovarian cancer cells) and MIA PaCa-2 cells (pancreatic cancer cells) and the murine neuroblastoma cell line Neuro-2a were grown in DMEM GlutaMAX supplemented with 10% v/v FBS in 5% CO2 at 37°C. For free uptake experiments, cells were seeded in 96-well plates at a density of 2.000 cells/well. Twenty-four hours later, the medium was removed, and cells were further incubated during 3 days in DMEM supplemented with 1% v/v FBS containing various concentrations of free or conjugated oligos. […] Relative RNA expression levels were quantified by RT-qPCR using the TaqMan™ Fast Universal PCR Master Mix (2X) no AmpErase™ UNG kit (Applied Biosystems) and commercially available TaqMan™ probes for murine SOD1, human SOD1 or human MALAT-1 genes (Applied Biosystems). Expression data were analyzed using the DDCq method normalized to the expression of reference RpL 13 or GAPDH genes, based on raw quantification cycle (Cq) values (Bustin et al.) and are presented as mRNA levels relative to untreated cells. Experimental data (experimental triplicates) are presented as means ± standard deviation (SD) and were analysed with GraphPad Prism® software using a three-parameter log(inhibitor) vs. response nonlinear regression to determine the IC50. […]

SOD1 mRNA = assay: In vivo mRNA knock-down by VHH-siSOD1h conjugate in non-human primates; set-up: species or system olive baboons (Papio Anubis)
Experimental: VHH-siSOD1h conjugates targeting the human and non-human primate (NHP) SOD1 gene were assessed for their ability to mediate SOD1 mRNA knock-down in muscle tissues of olive baboons (Papio Anubis). PBS vehicle (control) or a TfR-binding VHH-siSOD 1h conjugate was administered as a single intravenous (IV infusion, 30 min) in olive baboons (males, 10-17-month-old, 2.6-4.5kg) at the dose of 5 mg/kg (siRNA molar equivalent). At indicated times following administration, approximately 100 mg samples of gastrocnemius, quadriceps and tibialis anterior muscle were withdrawn under general anesthesia, snap-frozen in 10 vol. ofNucleoProtect RNA stabilization reagent (Macherey-Nagel) and stored at -20°C. […] RNA samples were analyzed and dosed using a Fragment Analyzer RNA kit in a Fragment Analyzer system (Agilent). Relative RNA expression levels were quantified by RT-qPCR using the TaqMan™ Fast Universal PCR Master Mix (2X) no AmpErase™ UNG kit (Applied Biosystems) and commercially available TaqMan™ probes for […] and RpL13 genes (Applied Biosystems). Expression data were analyzed using the DDCq method normalized to the expression of the reference RpL13 gene, based on raw quantification cycle (Cq) values (Bustin et al.). The results are expressed as means ± standard error of the mean (SEM) and are presented as mRNA levels relative to the control animals injected with PBS. […]

T1 sequence (P02786 whole entry): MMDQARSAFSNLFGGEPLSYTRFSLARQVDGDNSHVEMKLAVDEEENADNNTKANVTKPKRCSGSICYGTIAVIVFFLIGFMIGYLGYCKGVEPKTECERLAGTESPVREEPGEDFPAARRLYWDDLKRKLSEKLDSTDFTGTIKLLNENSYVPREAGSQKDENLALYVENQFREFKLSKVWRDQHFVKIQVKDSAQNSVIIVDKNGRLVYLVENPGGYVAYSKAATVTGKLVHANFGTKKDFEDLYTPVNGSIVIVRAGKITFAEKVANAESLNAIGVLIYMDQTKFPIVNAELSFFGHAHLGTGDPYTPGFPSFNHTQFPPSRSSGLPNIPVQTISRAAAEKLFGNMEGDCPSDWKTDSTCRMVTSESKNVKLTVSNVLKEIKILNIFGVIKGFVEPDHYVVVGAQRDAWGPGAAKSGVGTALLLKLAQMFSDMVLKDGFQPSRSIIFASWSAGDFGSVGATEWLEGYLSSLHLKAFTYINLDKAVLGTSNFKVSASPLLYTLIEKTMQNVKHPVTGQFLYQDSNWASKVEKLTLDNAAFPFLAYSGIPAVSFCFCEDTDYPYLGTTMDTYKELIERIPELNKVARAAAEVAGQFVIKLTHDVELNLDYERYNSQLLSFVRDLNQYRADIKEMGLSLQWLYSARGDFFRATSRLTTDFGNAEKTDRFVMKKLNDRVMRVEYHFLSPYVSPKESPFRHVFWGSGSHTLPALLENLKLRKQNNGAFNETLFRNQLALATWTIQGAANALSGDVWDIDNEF
T2 sequence (Q62351 whole entry): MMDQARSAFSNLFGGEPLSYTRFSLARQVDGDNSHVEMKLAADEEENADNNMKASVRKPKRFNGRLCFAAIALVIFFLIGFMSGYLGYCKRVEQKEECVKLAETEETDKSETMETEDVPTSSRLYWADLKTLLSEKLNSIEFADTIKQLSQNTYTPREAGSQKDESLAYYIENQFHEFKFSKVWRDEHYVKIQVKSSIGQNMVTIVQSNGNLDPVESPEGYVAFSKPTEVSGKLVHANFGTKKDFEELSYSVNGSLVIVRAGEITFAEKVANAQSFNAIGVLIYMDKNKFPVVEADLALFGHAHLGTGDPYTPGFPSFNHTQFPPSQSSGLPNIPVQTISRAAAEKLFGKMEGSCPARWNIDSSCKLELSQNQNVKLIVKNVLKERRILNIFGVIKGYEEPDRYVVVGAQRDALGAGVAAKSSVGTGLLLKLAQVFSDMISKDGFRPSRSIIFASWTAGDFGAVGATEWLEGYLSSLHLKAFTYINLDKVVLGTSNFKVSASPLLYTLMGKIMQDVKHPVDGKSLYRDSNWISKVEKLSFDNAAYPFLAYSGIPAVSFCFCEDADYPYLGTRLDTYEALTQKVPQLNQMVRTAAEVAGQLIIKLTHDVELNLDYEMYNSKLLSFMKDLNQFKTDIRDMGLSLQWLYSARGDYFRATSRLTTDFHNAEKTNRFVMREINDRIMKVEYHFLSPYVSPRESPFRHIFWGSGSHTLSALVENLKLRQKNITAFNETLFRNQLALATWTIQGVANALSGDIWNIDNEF

Molecule	inhibition of the binding and uptake of the reference compound (hTfR)	inhibition of the binding and uptake of the reference compound (mTfR)	inhibition of the binding and uptake of the reference compound (rhTfR)	effect on hSOD1 mRNA levels (hSOD1 mRNA)	knock-down of SOD1 mRNA (SOD1 mRNA; all muscle tissues tested (gastrocnemius, quadriceps, tibialis anterior), single IV infusion 5 mg/kg (siRNA molar equivalent) (Figure 12)) [%]	duration of knock-down (SOD1 mRNA; single IV infusion 5 mg/kg (siRNA molar equivalent))
B1	concentration-dependent inhibition	concentration-dependent inhibition	concentration-dependent inhibition	–	–	–
B2	concentration-dependent inhibition	concentration-dependent inhibition	concentration-dependent inhibition	potent and concentration-dependent hSOD1 mRNA downregulation	–	–
B3	concentration-dependent inhibition	concentration-dependent inhibition	concentration-dependent inhibition	–	–	–
B4	concentration-dependent inhibition	concentration-dependent inhibition	concentration-dependent inhibition	potent and concentration-dependent hSOD1 mRNA downregulation	60	more than three months
